Measured values as given in the supplement of paper PMC9233669.
Fewer inactive variants are shown than the library holds.

Tests used:
biotinyl-Val-oxazolone = experiment: self-aminoacylation, catalytic enhancement (BVO) (fold over background); higher = more active; k-Seq, kA / k0A0; sequences stand for … in GGGAAUGGAUCCACAUCUACGAAUUC…UUCACUGCAGACUUGACGAAGCUG
Method in brief: (§1)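 Catalytic enhancement equals the median kA over the uncatalyzed rate, the latter read from the low-activity peak of a bimodal Gaussian fit. Values of kA came from fitting each sequence's fraction reacted to a pseudo-first-order model, with 1000 bootstraps. Reacted RNA was captured with streptavidin and quantified by triplicate qPCR and Illumina sequencing after 90 minutes at room temperature with 2–1250 μM biotinyl-aminoacyl-oxazolone and 0.43 μM mutagenized RNA pools bearing a 21-nt variable region.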

biotinyl-Ile-oxazolone = experiment: self-aminoacylation, catalytic enhancement (BIO) (fold over background); higher = more active; k-Seq, kA / k0A0; sequences stand for … in GGGAAUGGAUCCACAUCUACGAAUUC…UUCACUGCAGACUUGACGAAGCUG
Method in brief: as §1

biotinyl-Met-oxazolone = experiment: self-aminoacylation, catalytic enhancement (BMO) (fold over background); higher = more active; k-Seq, kA / k0A0; sequences stand for … in GGGAAUGGAUCCACAUCUACGAAUUC…UUCACUGCAGACUUGACGAAGCUG
Method in brief: as §1

biotinyl-Leu-oxazolone = experiment: self-aminoacylation, catalytic enhancement (BLO) (fold over background); higher = more active; k-Seq, kA / k0A0; sequences stand for … in GGGAAUGGAUCCACAUCUACGAAUUC…UUCACUGCAGACUUGACGAAGCUG
Method in brief: as §1

biotinyl-Phe-oxazolone = experiment: self-aminoacylation, catalytic enhancement (BFO) (fold over background); higher = more active; k-Seq, kA / k0A0; sequences stand for … in GGGAAUGGAUCCACAUCUACGAAUUC…UUCACUGCAGACUUGACGAAGCUG
Method in brief: as §1

biotinyl-Trp-oxazolone = experiment: self-aminoacylation, catalytic enhancement (BWO) (fold over background); higher = more active; k-Seq, kA / k0A0; sequences stand for … in GGGAAUGGAUCCACAUCUACGAAUUC…UUCACUGCAGACUUGACGAAGCUG
Method in brief: as §1

Sequence	self-aminoacylation (biotinyl-Val-oxazolone)	self-aminoacylation (biotinyl-Ile-oxazolone)	self-aminoacylation (biotinyl-Met-oxazolone)	self-aminoacylation (biotinyl-Leu-oxazolone)	self-aminoacylation (biotinyl-Phe-oxazolone)	self-aminoacylation (biotinyl-Trp-oxazolone)
AUUACACUGGUCGUCGAGUGA [Fam2.1 aminoacylation ribozyme variant]	1.38	1.25	1.14	1.44	2.53	0.958
AUUACACUGGUUAUCGAGUGA [Fam2.1 aminoacylation ribozyme variant]	3.72	4.23	7.64	8.73	45.5	10.3
AUUACAUUGGUCAUCGAGUGA [Fam2.1 aminoacylation ribozyme variant]	2.95	3.03	5.35	5.8	22.8	6.85
AUUACCAUGGUCAUCAAGUGA [Fam2.1 aminoacylation ribozyme variant]	2.4	2.22	3.69	4.04	5.16	5.09
AUUACCAUGGUCAUCGAGUCA [Fam2.1 aminoacylation ribozyme variant]	0.778	0.821	0.695	0.823	0.683	0.451
AUUACCAUGGUCAUCGGGUGA [Fam2.1 aminoacylation ribozyme variant]	7.28	6.52	14.7	13.6	96	16.2
AUUACCAUGGUCAUCGUGUGA [Fam2.1 aminoacylation ribozyme variant]	2.2	1.9	4.58	4.26	27.8	5.96
AUUACCAUGGUCAUCUAGUGA [Fam2.1 aminoacylation ribozyme variant]	5.38	5.41	11.1	11.1	59.9	15.6
AUUACCAUGGUCAUGGAGUGA [Fam2.1 aminoacylation ribozyme variant]	3.34	3.74	5.25	5.78	24.3	7.35
AUUACCAUGGUUAUCGAGUGA [Fam2.1 aminoacylation ribozyme variant]	4.79	4.38	9.62	10.6	69.6	12.2
AUUACCCAGCUCAUCGAGUGA [Fam2.1 aminoacylation ribozyme variant]	1.56	1.47	1.54	1.52	1.01	1.32
AUUACCCAGGUCACCGAGUGA [Fam2.1 aminoacylation ribozyme variant]	4.49	4.17	8.63	10.2	66.2	10.3
AUUACCCAGGUCAUCGAGUGG [Fam2.1 aminoacylation ribozyme variant]	1.22	1.14	1.07	1.3	0.937	0.735
AUUACCCAGGUCAUCGCGUGA [Fam2.1 aminoacylation ribozyme variant]	10.3	8.22	20.3	22.9	156	19.3
AUUACCCAGGUCAUCGGGUGA [Fam2.1 aminoacylation ribozyme variant]	7.25	5.86	11.5	12.6	75.2	11
AUUACCCAGUUCAUCGAGUGA [Fam2.1 aminoacylation ribozyme variant]	2.62	2.14	3.69	3.09	16.8	4.78
AUUACCCAUGUCAUCGAGUGA [Fam2.1 aminoacylation ribozyme variant]	4.43	4.15	7.7	8.07	34.3	9.9
AUUACCCCCGUCAUCGAGUGA [Fam2.1 aminoacylation ribozyme variant]	3.12	2.84	4.43	4.7	18.4	4.67
AUUACCCCGGUCAUAGAGUGA [Fam2.1 aminoacylation ribozyme variant]	3.96	4.47	7.91	8.34	43.1	8.65
AUUACCCCGGUCAUCCAGUGA [Fam2.1 aminoacylation ribozyme variant]	3.06	3.52	4.93	5.88	31.4	5.63
AUUACCCCGGUCAUCGAGUGG [Fam2.1 aminoacylation ribozyme variant]	1.13	0.919	1.25	2.42	4.86	0.999
AUUACCCCGGUCAUCGUGUGA [Fam2.1 aminoacylation ribozyme variant]	1.74	1.55	2.63	2.57	16.2	2.98
AUUACCCCGUUCAUCGAGUGA [Fam2.1 aminoacylation ribozyme variant]	2.77	2.28	4.47	3.55	7.48	5.03
AUUACCCCUGUCAUCGAGUGA [Fam2.1 aminoacylation ribozyme variant]	3.14	3.62	4.96	5.42	28.2	7.28
AUUACCCGGGUAAUCGAGUGA [Fam2.1 aminoacylation ribozyme variant]	5.84	5.16	12.1	13.9	81	13.2
AUUACCCGGGUCAUCGAGAGA [Fam2.1 aminoacylation ribozyme variant]	1.22	1.22	1.05	1.01	0.475	1.24

Sequence	self-aminoacylation (biotinyl-Val-oxazolone)	self-aminoacylation (biotinyl-Ile-oxazolone)	self-aminoacylation (biotinyl-Met-oxazolone)	self-aminoacylation (biotinyl-Leu-oxazolone)	self-aminoacylation (biotinyl-Phe-oxazolone)	self-aminoacylation (biotinyl-Trp-oxazolone)
AUUACCCGGGUCAUCGAGUAA [Fam2.1 aminoacylation ribozyme variant]	1.58	2.05	1.91	1.54	8.59	3.56
AUUACCCGGGUCAUUGAGUGA [Fam2.1 aminoacylation ribozyme variant]	4.83	4.35	9.41	8.98	56.8	10.8
AUUACCCGGGUCUUCGAGUGA [Fam2.1 aminoacylation ribozyme variant]	4.57	4.5	7.15	8.21	44.4	8.46
AUUACCCGGUUCAUCGAGUGA [Fam2.1 aminoacylation ribozyme variant]	4.41	3.67	6.36	6.51	16.5	7.78
AUUACCCUAGACAUCGAGUGA [Fam2.1 aminoacylation ribozyme variant]	4.07	3.77	8.71	7.96	37	9.09
AUUACCCUAGCCAUCGAGUGA [Fam2.1 aminoacylation ribozyme variant]	2.13	2.02	3.86	3.46	9	4.91
AUUACCCUAGUCACCGAGUGA [Fam2.1 aminoacylation ribozyme variant]	3.27	2.89	6.48	6.48	23.1	7.33
AUUACCCUAGUCAGCGAGUGA [Fam2.1 aminoacylation ribozyme variant]	3.38	3.38	5.1	5.18	23.4	6.79
AUUACCCUAGUCAUCAAGUGA [Fam2.1 aminoacylation ribozyme variant]	2.58	2.05	3.73	3.66	11.2	4.95
AUUACCCUAGUCAUCGAGCGA [Fam2.1 aminoacylation ribozyme variant]	1.32	1.3	1.38	1.2	0.894	1.21
AUUACCCUAGUCAUCGAGUCA [Fam2.1 aminoacylation ribozyme variant]	0.893	0.724	0.631	0.674	0.47	0.546
AUUACCCUAGUCAUCGAGUGA [Fam2.1 aminoacylation ribozyme variant]	3.05	2.89	4.92	5.12	18	6.3
AUUACCCUAGUCAUCGCGUGA [Fam2.1 aminoacylation ribozyme variant]	5.09	4.26	8.29	9.91	54.5	10.1
AUUACCCUAGUCAUUGAGUGA [Fam2.1 aminoacylation ribozyme variant]	3.86	3.69	6.69	6.93	25.9	9.31
AUUACCCUAGUUAUCGAGUGA [Fam2.1 aminoacylation ribozyme variant]	3.83	3.77	8.68	8.3	50.7	11.1
AUUACCCUCGUCAGCGAGUGA [Fam2.1 aminoacylation ribozyme variant]	2.58	2.39	3.5	4.33	9.66	4.57
AUUACCCUCGUCAUCGAGUGA [Fam2.1 aminoacylation ribozyme variant]	2.07	2.08	2.98	3.09	8.82	3.22
AUUACCCUCGUCAUCGAGUGG [Fam2.1 aminoacylation ribozyme variant]	0.932	0.948	1.31	1.46	0.728	0.389
AUUACCCUCGUCAUCGGGUGA [Fam2.1 aminoacylation ribozyme variant]	2.77	2.39	3.84	4.5	24.1	3.81
AUUACCCUCGUCAUCGUGUGA [Fam2.1 aminoacylation ribozyme variant]	1.22	1.15	1.47	1.47	1.22	1.65
AUUACCCUCGUCAUCUAGUGA [Fam2.1 aminoacylation ribozyme variant]	2.7	2.3	3.26	3.57	9.86	4.43
AUUACCCUCGUUAUCGAGUGA [Fam2.1 aminoacylation ribozyme variant]	5.63	5.66	13.8	13.9	91.9	17
AUUACCCUGAUCAACGAGUGA [Fam2.1 aminoacylation ribozyme variant]	6.16	6.3	14.6	15	66.4	18.5
AUUACCCUGAUCAUAGAGUGA [Fam2.1 aminoacylation ribozyme variant]	6.89	6.32	15.8	15.1	70.5	17.7
AUUACCCUGAUCAUCGAAUGA [Fam2.1 aminoacylation ribozyme variant]	0.871	0.936	0.93	0.898	0.602	0.561
